doi:10.1101/102160

What was measured:
[1] = molecular target: CTD2, C-terminal domain of the OCP2 from Fremyella diplosiphon, with C-terminal HisTag (Fremyella diplosiphon UTEX481); assay: SEC
[2] = molecular target: NTD1-CTD1 heterodimer (with canthaxanthin) (Fremyella diplosiphon UTEX481); assay: SEC

| stoichiometry N [1] | stoichiometry N [2] | Substance |
| --- | --- | --- |
| 2 | – | CTD2, C-terminal domain of the OCP2 from Fremyella diplosiphon, with C-terminal HisTag (domain or fragment) |
| – | 2 | NTD1-CTD1 heterodimer (with canthaxanthin) (complex) |
